Key:
Settings in all cases: tags: PeproTech
[1] = target: T1, IL-21 (interleukin-21) (Homo sapiens, UniProt Q9HBE4 SEQ:25-162); test: SPR; negative control, no binding
[2] = target: T1, IL-21 (interleukin-21); test: cell_activity; 10 nM aptamer
Method: (§1) After overnight culture, the same medium was used to seed 2×10⁴ cells per well for testing. Human IL-21 alone or a mixed solution of human IL-21 and aptamer was added thereto and the cells were cultured for 16 hr. The final concentration of human IL-21 was adjusted to 0.05 nM. After 16 hr, the culture supernatant was collected and IFN-γ contained in the supernatant was quantified by sandwich ELISA method. An ELISA Kit manufactured by R&D Systems or Diaclone was used for quantification. After quantification, the inhibitory rate was calculated using the following formula.
Whether these aptamers bind to human IL-21 and inhibit the function thereof was evaluated by a method similar to that in Example 1. Aptamers were obtained by transcription using double-stranded DNA as a template. The evaluation of inhibition in the cell assay system was performed at a nucleic acid final concentration of 10 nM. […] In the Table, “n.d.” indicates unmeasured.

[3] = target: T1, IL-21 (interleukin-21); test: cell_activity; 1 nM aptamer; 100.0 at 0.2 nM
Method: as §1
Whether these aptamers bind to human IL-21 and inhibit the function thereof was evaluated by preparing the aptamers by chemical synthesis and using a method similar to that in Example 1. The evaluation of inhibition in the cell assay system was performed at nucleic acid final concentrations of 1 nM and 0.2 nM. […] In the Table, “n.d.” indicates unmeasured.

[4] = target: T1, IL-21 (interleukin-21); test: cell_activity; 10 nM aptamer, scored −
Method: as §1
Whether these aptamers bind to human IL-21 and inhibit the function thereof was evaluated by a method similar to that in Example 1. Aptamers were obtained by transcription using double-stranded DNA as a template. […] In addition, “n.d.” indicates unmeasured.

[5] = target: T1, IL-21 (interleukin-21); test: cell_activity; 1 nM aptamer; 100.0% at 0.1 nM
Method: as §1
Whether these aptamers bind to human IL-21 and inhibit the function thereof was evaluated by preparing the aptamers by chemical synthesis and using a method similar to that in Example 1. The evaluation of inhibition in the cell assay system was performed at nucleic acid final concentrations of 1 nM and 0.1 nM. […] In the Table, “n.d.” indicates unmeasured.

[6] = target: T1, IL-21 (interleukin-21); test: cell_activity; IFN-gamma secretion from NK92 cells stimulated with human IL-21
Method: as §1
Whether these aptamers bind to human IL-21 and inhibit the function thereof was evaluated by preparing the aptamers by chemical synthesis and using a method similar to that in Example 1. […] The evaluation of inhibition in the cell assay system was performed at nucleic acid final concentrations of 1 nM and 0.2 nM. In addition, in a cell assay system, the aptamer concentration (IC₅₀) at which IFN-γ secretion was inhibited by 50% by IL-21 stimulation was determined. In the Table, “n.d.” indicates unmeasured.

T1 sequence (Q9HBE4 25-162): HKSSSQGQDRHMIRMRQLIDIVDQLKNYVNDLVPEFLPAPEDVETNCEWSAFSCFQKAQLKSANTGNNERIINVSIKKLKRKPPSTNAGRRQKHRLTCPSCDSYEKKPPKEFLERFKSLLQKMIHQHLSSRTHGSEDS

B1: SEQ49 negative control 51mer (ssRNA)
RNA: GGGAAGCUCCGUCGAGCUUUCCUGCAUAAGCUGUAUUGCAGCCAGCAUUUA
B1: no binding [1].

Binder GGACCGUCAACACGCGACUACUCGUGAUUGCCCGUCC (ssRNA, 2'-F all pyrimidines) [SEQ39] has an activity [2] of 56.1 % inhibition.

GGACCUUCAACACGCGGCUACUCGUGAUUGCCCGUCC (ssRNA, as SEQ22(1) plus 2'-OMe C4,U28,U29; 3'-idT) [SEQ22(2)] was tested, and the activity [3] was 100 % inhibition.

GGACCUUCAACACGCGACUACUCGUGAUUGCACGUCC (ssRNA, 2'-F all pyrimidines) [SEQ43] gave an activity [2] of 43.7 % inhibition.

GGACCUUCAACACGCGACGACUCGUGAUUGCCCGUCC (ssRNA, 2'-F all pyrimidines) [SEQ41] showed an activity [2] of 32.4 % inhibition.

Binder GGACCUUCAACACGCGGCUACUCGUGAUUGCCCGUCC (ssRNA, as SEQ22(2) plus 5'-PEG 40 kDa; 3'-idT) [SEQ22(15)] has an activity [3] of 100 % inhibition.

B2: SEQ22(1) (ssRNA)
RNA: GGACCUUCAACACGCGGCUACUCGUGAUUGCCCGUCC
modifications: 2'-OMe 1-3,9-14,20,21,24-27,30-32,34-37; 2'-F 4-8,15,18,19,22,23,28,29,33; 2'-OH G16,G17; 3'-idT
B2 was tested, and the activity [3] was 100 % inhibition.

Binder GGACCUCCAACACGCGACUACUCGUGAUUGCCCGUCC (ssRNA, 2'-F all pyrimidines) [SEQ40] has an activity [2] of 42 % inhibition.

With GGACCUUCAACACGCGACUACCCGUGAUUGCCCGUCC (ssRNA, 2'-F all pyrimidines) [SEQ42] the activity [2] was 39 % inhibition.

GGACCUUCAACACGCGAUACUCGUGAUUGCCCGUCC (ssRNA, 2'-F pyrimidines) [SEQ14] showed an activity [4] of 13.3 % inhibition.

GGACCUUCAACACGCGACACUCGUGAUUGCCCGUCC (ssRNA, 2'-F pyrimidines) [SEQ15] showed an activity [4] of 10.7 % inhibition.

For GGACCUUCAACACGCGACUCUCGUGAUUGCCCGUCC (ssRNA, 2'-F pyrimidines) [SEQ16], the activity [4] was 10.7 % inhibition.

GACCUUCAACCCGCGGCUACUCGGGAUUGCCCGUC (ssRNA, as SEQ38(1) with PS after G15) [SEQ38(14)] showed an activity [5] of 100 % inhibition.

Work on GACCUUCAACCCGCGGCUACUCGGGAUUGCCCGUC (ssRNA, as SEQ38 plus 5' 40 kDa PEG) [SEQ38(1)] yielded an IC50 [6] of 0.02 nM.

For GACCUUCAACCCGCGGCUACUCGGGAUUGCCCGUC (ssRNA, as SEQ38(1) with PS after G15,G16) [SEQ38(18)], the activity [5] was 100 % inhibition.

In the case of GACCUUCAACCCGCGGCUACUCGGGAUUGCCCGUC (ssRNA, as SEQ38(1) with PS after G16) [SEQ38(15)], the activity [5] is reported as 100 % inhibition.

From patent publication US20230235333, “APTAMER FOR IL-21 AND USE THEREOF” (RIBOMIC INC, published 2023)
